# Like-named read-outs stand apart in the source and are kept apart here.
# Tests used:
# crystal structure [1] = target: the molecule itself; experiment: crystal structure
# crystal structure [2] = target: the molecule itself; experiment: crystal structure; remark: listed apart in the source
Protein,stoichiometry N (crystal structure [1]),stoichiometry N (crystal structure [2])
"Fluc channel from Bordetella pertussis (Bpe), R29K/E94C, Hg-labelled (natural protein, Hg at the unique cysteine (E94C), labelled with Hg(II) acetate) MLTYAPLNFIAIGIGATLGAWLRWVLGLKLNGAGWPWGTLTANLVGGYLIGVMVALIASHPEWPAWIRLAAVTGFLGGLTTFSTFSAETVDMLCRGVYATAAAYAGASLAGSLAMTGLGLATVRLLLR",2,
"Fluc channel from Bordetella pertussis (Bpe), R29K/E94S (natural protein, UniProt Q7VYU0 1-128, looked up) MLTYAPLNFIAIGIGATLGAWLRWVLGLKLNGAGWPWGTLTANLVGGYLIGVMVALIASHPEWPAWIRLAAVTGFLGGLTTFSTFSAETVDMLSRGVYATAAAYAGASLAGSLAMTGLGLATVRLLLR",,2

# Reference: paper PMC4876929 (Nature, 2015)
